Reference: patent US11273217B2, “Cancer treatment composition combining anti-CD26 antibody and other anticancer agent” (Y's AC Co., Ltd., priority 2015, dated 2022)

System: MSTO clone 12 (CD26-positive malignant mesothelioma cell line)
Assay: WST-1 cytotoxicity assay, MSTO clone 12
Format: cell-based
Source text: A CD26-negative malignant mesothelioma cell line MSTO-211H (MSTO) (American Type Cell Culture Collection, Manassas, Va.) was transfected with CD26 gene, which was designated as MSTO clone 12 (Aoe K et al., Clin Cancer Res. (2012) 18: 1447-56). A CD26-negative T-cell leukemia cell line Jurkat (American Type Cell Culture Collection, Manassas, Va.) was transfected with CD26 gene, which was designated as Jurkat CD26(+) (Tanaka T et al., Proc Natl Acad Sci USA (1993) 90: 4586-90). A CD26-positive cell line JMN established from malignant mesothelioma was kindly provided by professor Chikao Morimoto, the Institute of Medical Science, the University of Tokyo. All the cell lines were cultured in RPMI medium (catalog No. 11875-093, Life Technologies Corp., Carlsbad, Calif.) containing 10% heat-inactivated fetal bovine serum (FBS, Life Technologies Corp., Carlsbad, Calif.), ABPC (100 μg/ml), and streptomycin (100 μg/ml) at 37° C. under 5% CO2 environment.
WST-1 assay was conducted according to the manual provided by the manufacturer. The background absorbance of each sample at 630 nm was subtracted from the measurement value thereof at 450 nm.

B1: Y-TR1 SPDP (conjugate)
heavy: EVQLVESGAGVKQPGGTLRLTCTASGFSLTTYGVHWVRQAPGKGLEWVGVIWGDGRTDYDAAFMSRVTISKDTSKSTVYLQMNSLRAEDTAVYYCMRNRHDWFDYWGQGTTVTVSSASTKGPSVFPLAPSSKSTSGGTAALGCLVKDYFPEPVTVSWNSGALTSGVHTFPAVLQSSGKLSSVVTVPSSSLGTQTYICNVNHKPSNTKVDKKVEPKSCDKTHTCPPCPAPELLGGPSVFLFPPKPKDTLMISRTPEVTCVVVDVSHEDPEVKFNWYVDGVEVHNAKTKPREEQYNSTYRVVSVLTVLHQDWLNGKEYKCKVSNKALPAPIEKTISKAKGQPREPQVYTLPPSRDELTKNQVSLTCLVKGFYPSDIAVEWESNGQPENNYKTTPPVLDSDGSFFKKLTVDKSRWQQGNVFSCSVMHEALHNHYTQKSLSLSPGK
light: DILLTQSPSSLSATPGERATITCRASQGIRNNLNWYQQKPGQAPRLLIYYSSNLQSGVPSRFSGSGSGTDFTLTISRLQPEDVAAYYCQQSIKLPFTFGSGTKVEIKRTVAAPSVFIFPPSDEQLKSGTASVVCLLNNFYPREAKVQWKVDNALQSGNSQESVTEQDSKDSTYSLSSTLTLSKADYEKHKVYACEVTHQGLSSPVTKSFNRGEC
IC50 (MSTO clone12, CD26 (+), 48 hours): 38 µg/mL | IC50 (Table 5: comparison among 3 types of linkers, MSTO clone 12): 35 µg/mL
